The data set concerns the molecule itself. Kind of data set: X-ray fiber diffraction.

Data on one protein can be found in article PMC10127185, “Low complexity domains of the nucleocapsid protein of SARS-CoV-2 form amyloid fibrils” (Nature Communications, 2023).

B1: NCAP central low complexity domain segment (construct LCD, residues 171–263) (domain or fragment)
chain: TFYAEGSRGGSQASSRSSSRSRNSSRNSTPGSSRGTSPARMAGNGGDAALALLLLDRLNQLESKMSGKGQQQQGQTVTKKSAAEASKKPRQKRT
notes: also called central LCD; LCD segment; not shown: 6xHis-SUMO, N-terminal, cleaved
In the case of B1, the binding result is listed as “binds”.
